Measured values reported in PMC6482012.

Molecular target: p62 (SQSTM1) (UniProt Q13501)
Test: GST pulldown after in vitro AMPK reaction
Conditions: reference: WT GST-KHK-A without AMPK; sites S80

KHK-A (fructokinase A, ketohexokinase A) (from UniProt P50053-2) WT GST-KHK-A incubated with active AMPK
binding against the reference: stronger
